Assays:
B52 (SRp55) full length [1] = biological target: T1, B52 (SRp55) full length (Drosophila melanogaster, UniProt P26686 P26686:1-350); assay: EMSA; pentavalent vs monovalent; single-unit ribozyme-cleaved transcript tested in FIG. 9A; details: tags: baculovirus/Sf9 expressed, SR protein purification; multivalent, five BBS hairpins closed by S35 stem
Protocol: (§1) Gel shifts were performed at 4° C. The binding reaction mixtures were set at 4° C. for 5-10 minutes before being loaded onto a 2.5% agarose gel in ¼ TBE buffer. The avidity of the pentavalent RNA aptamer to B52 was examined on longer agarose gels (25 cm) to improve the resolution of RNA bands. The affinity of the RNA for the in vitro translated polypeptides was estimated by comparing the intensity of the bands representing the complex on the agarose gel and that of the corresponding polypeptides run on SDS-PAGE. To crosslink proteins to RNA, the binding reaction mixtures were irradiated for 20 minutes from 5 cm directly above by inverting a short-wavelength UV trans-illuminator. The products of crosslinking were analyzed using standard SDS-PAGE.
Fragment C, which contains no binding site, served as an internal loading control in a band shift assay to assess the avidity of the pentavalent construct. During the transcription reaction, the extent of self-cleavage reached about 90% (FIG. 9A, Lane 1). […] The multivalent RNA aptamers bound B52 10-fold more avidly than the individual monovalent RNA aptamers, as shown here compared to the strong-binding primary aptamer BBS #14 (Lanes 2-4 vs. Lanes 6-8, FIG. 9A). […]

B52 (SRp55) full length [2] = biological target: T1, B52 (SRp55) full length; assay: EMSA; binds as well as BBS-I; details: tags: baculovirus/Sf9 expressed, SR protein purification; label: 32P-UTP; hairpin with internal loop
Protocol: (§2) All binding assays were performed in 20 μl volume in 1× binding buffer described above. A typical binding assay using labeled RNA contains about 20 finole of ³²P-labeled RNA probe and differing amounts (1-10 pmole) of B52 protein. A typical binding assay using the truncated versions of B52 contains 1 μl of the ³⁵S-labeled translation reaction mixture with 2 pmoles of unlabeled RNA transcript (the final concentration of RNAs in this reaction was 100 nM and concentration of the labeled B52 proteins was much lower). The reactions were allowed to equilibrate for 15-20 minutes at ambient temperature before being subjected to filter binding, gel shift, or UV crosslinking.
(§3) To determine the sequence/structure requirements for binding by B52, deletion and substitution mutations, and antisense constructs of BBS were designed in light of the shared sequence motif and predicted secondary structures (FIG. 4). These short RNA transcripts were produced by in vitro transcription of synthetic templates, and their affinity to B52 was assayed by band shift.

B52 (SRp55) full length [3] = biological target: T1, B52 (SRp55) full length; assay: EMSA; antisense does not bind; details: tags: baculovirus/Sf9 expressed, SR protein purification, label: 32P-UTP
Protocol: as §2, §3

B52 (SRp55) full length [4] = biological target: T1, B52 (SRp55) full length; assay: EMSA; 1:1; 50 mM Tris pH 7.6, 200 mM KOAc, 5 mM MgCl2, excess tRNA, gel 4 C; details: tags: baculovirus/Sf9 expressed, SR protein purification; label: 32P-UTP; hairpin
Protocol: as §2
(§4) When individual RNA's transcribed from cloned sequences were tested by filter binding assay the BBS RNA's were all able to bind B52 to generate signals that were 20 times the background produced by RNA's from the unselected pools. […] After cloning the selected sequences, RNA transcripts without most of the 3′ constant region were made by cutting the template with the restriction endonuclease Scal. […] The band shift assay was first performed with these sequences. Two sequences randomly picked from the original unselected pool were used as controls. Increasing amounts of B52 were added to ³²P-labeled RNA probes, which contain the 5′ constant region, in the presence of a large excess of tRNA. […]

B52 (SRp55) full length [5] = biological target: T1, B52 (SRp55) full length; assay: EMSA; full binding activity; details: tags: baculovirus/Sf9 expressed, SR protein purification; label: 32P-UTP; hairpin with unfolded 3' tail
Protocol: as §2, §3

B52 (SRp55) full length [6] = biological target: T1, B52 (SRp55) full length; assay: EMSA; binding not compromised; details: tags: baculovirus/Sf9 expressed, SR protein purification; label: 32P-UTP; hairpin
Protocol: as §2, §3

B52 (SRp55) full length [7] = biological target: T1, B52 (SRp55) full length; assay: EMSA; fully active; details: tags: baculovirus/Sf9 expressed, SR protein purification; label: 32P-UTP; hairpin
Protocol: as §2, §3

B52 (SRp55) full length [8] = biological target: T1, B52 (SRp55) full length; assay: EMSA; consensus trapped in duplex loses binding; details: tags: baculovirus/Sf9 expressed, SR protein purification; label: 32P-UTP; hairpin, BBS consensus paired with its antisense via UUCG tetraloop
Protocol: as §2, §3

B52 (SRp55) full length [9] = biological target: T1, B52 (SRp55) full length; assay: filter; signal 20x background of unselected pool; details: tags: baculovirus/Sf9 expressed, SR protein purification; hairpin
Protocol: as §2, §4

B52 (SRp55) full length [10] = biological target: T1, B52 (SRp55) full length; assay: EMSA; strong binder; both conserved flanking Gs; details: tags: baculovirus/Sf9 expressed, SR protein purification; label: 32P-UTP; hairpin
Protocol: as §2, §3

B52 RRM1+RRM2 (R12) = B52 RRM1+RRM2 (R12) (Drosophila melanogaster, UniProt P26686 P26686:4-188); assay: EMSA; affinity comparable to baculovirus B52; also UV-crosslinked; details: tags: 35S-Met, reticulocyte lysate; hairpin
Protocol: as §1
(§5) BBS RNAs were selected for their ability to bind full length B52 protein. It is possible that B52 binds RNA through either one or the other RRMs, the SR domain, or a combination of these domains. To identify the specific RNA-binding site on B52, a set of ³⁵S-methionine labeled B52 deletion constructs were prepared by in vitro translation and then tested for their ability to bind the selected BBS #8 RNA in two different assays (FIG. 6A). […]
(§6) To confirm the requirements of both RRMs for binding, these binding reactions were repeated and the reaction mixtures were subjected to UV irradiation. The UV-crosslinked species were then analyzed on SDS-PAGE. […]

B52 full length (F) = B52 full length (F) (Drosophila melanogaster, UniProt P26686 P26686:1-350); assay: EMSA; 100 nM RNA; affinity comparable to baculovirus B52; details: tags: 35S-Met, reticulocyte lysate; hairpin
Protocol: as §2
(§7) BBS RNAs were selected for their ability to bind full length B52 protein. It is possible that B52 binds RNA through either one or the other RRMs, the SR domain, or a combination of these domains. To identify the specific RNA-binding site on B52, a set of ³⁵S-methionine labeled B52 deletion constructs were prepared by in vitro translation and then tested for their ability to bind the selected BBS #8 RNA in two different assays (FIG. 6A). These polypeptides also serve as a second source of target proteins in binding assays to confirm the specificity of binding to the selected BBS RNA.

B52 RRM2+SR domain (R2S) = B52 RRM2+SR domain (R2S) (Drosophila melanogaster, UniProt P26686 P26686:115-350); assay: EMSA; 100 nM RNA, no discrete band; details: tags: 35S-Met, reticulocyte lysate; hairpin
Protocol: as §1, §7

B52 SR domain (S) = B52 SR domain (S) (Drosophila melanogaster, UniProt P26686 P26686:189-350); assay: EMSA; 100 nM RNA, no discrete band; details: tags: 35S-Met, reticulocyte lysate; hairpin
Protocol: as §1, §7

B52 RRM1 (R1) = B52 RRM1 (R1) (Drosophila melanogaster, UniProt P26686 P26686:4-74); assay: EMSA; no band; not UV-crosslinked; not complemented by R2S in trans; details: tags: 35S-Met, reticulocyte lysate; hairpin
Protocol: as §1, §5, §6

HSF (heat shock factor) = biological target: T2, HSF (heat shock factor) (UniProt P22813 P22813:1-691); assay: no measurable affinity for BBS RNAs; individual BBS and method not specified; details: hairpin
T2 sequence: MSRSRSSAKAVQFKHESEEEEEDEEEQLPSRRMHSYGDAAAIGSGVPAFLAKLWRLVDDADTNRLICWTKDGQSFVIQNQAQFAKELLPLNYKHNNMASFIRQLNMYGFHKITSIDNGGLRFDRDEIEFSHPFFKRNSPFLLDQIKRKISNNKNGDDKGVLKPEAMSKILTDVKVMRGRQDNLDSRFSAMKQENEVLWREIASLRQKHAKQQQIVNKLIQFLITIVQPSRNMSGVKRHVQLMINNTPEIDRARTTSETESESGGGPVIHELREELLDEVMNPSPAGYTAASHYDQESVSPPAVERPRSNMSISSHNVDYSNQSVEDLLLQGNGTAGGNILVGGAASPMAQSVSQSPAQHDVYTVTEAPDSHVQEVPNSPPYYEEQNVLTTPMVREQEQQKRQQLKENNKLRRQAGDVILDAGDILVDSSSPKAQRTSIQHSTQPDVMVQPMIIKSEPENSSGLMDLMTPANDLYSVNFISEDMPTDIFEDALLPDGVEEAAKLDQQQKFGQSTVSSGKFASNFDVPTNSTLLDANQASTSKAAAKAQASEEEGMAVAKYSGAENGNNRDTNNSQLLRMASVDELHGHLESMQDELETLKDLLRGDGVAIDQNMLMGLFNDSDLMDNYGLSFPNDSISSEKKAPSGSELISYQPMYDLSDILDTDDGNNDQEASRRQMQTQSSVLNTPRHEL

RBP1 (SR protein) = biological target: T3, RBP1 (SR protein) (UniProt Q02427 Q02427:1-144); assay: as above; details: hairpin
T3 sequence: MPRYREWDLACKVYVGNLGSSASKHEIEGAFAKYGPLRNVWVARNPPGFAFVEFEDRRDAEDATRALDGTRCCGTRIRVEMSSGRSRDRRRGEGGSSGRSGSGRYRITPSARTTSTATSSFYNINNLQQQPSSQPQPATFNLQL

T1 sequence (P26686 other isoform, or with tags, fused parts or gaps): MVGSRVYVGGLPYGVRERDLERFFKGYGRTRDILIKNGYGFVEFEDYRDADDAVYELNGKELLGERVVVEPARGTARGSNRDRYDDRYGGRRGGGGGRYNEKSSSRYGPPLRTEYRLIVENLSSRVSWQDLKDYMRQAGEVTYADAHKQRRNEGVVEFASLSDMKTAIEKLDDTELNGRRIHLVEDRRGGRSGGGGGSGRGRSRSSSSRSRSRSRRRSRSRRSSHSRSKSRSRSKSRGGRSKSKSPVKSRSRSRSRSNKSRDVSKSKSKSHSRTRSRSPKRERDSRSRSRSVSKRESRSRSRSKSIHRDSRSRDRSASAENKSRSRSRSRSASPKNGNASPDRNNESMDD
Sequence of B52 SR domain (S) (P26686 other isoform, or with tags, fused parts or gaps): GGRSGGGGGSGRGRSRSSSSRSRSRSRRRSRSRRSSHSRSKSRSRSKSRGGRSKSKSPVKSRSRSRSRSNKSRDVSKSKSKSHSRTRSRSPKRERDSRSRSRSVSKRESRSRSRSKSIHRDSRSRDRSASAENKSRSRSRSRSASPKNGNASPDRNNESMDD
Sequence of B52 RRM1 (R1) (P26686 4-74, one chain of several): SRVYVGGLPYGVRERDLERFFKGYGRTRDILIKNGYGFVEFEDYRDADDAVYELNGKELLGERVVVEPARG
Sequence of B52 RRM2+SR domain (R2S) (P26686 other isoform, or with tags, fused parts or gaps): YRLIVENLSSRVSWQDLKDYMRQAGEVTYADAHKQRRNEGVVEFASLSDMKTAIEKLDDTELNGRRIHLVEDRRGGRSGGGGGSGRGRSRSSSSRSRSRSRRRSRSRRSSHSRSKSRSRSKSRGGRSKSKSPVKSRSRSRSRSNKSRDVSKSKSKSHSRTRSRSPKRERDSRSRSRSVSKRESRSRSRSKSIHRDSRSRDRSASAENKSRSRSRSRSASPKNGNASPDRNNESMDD
Sequence of B52 RRM1+RRM2 (R12) (P26686 other isoform, or with tags, fused parts or gaps): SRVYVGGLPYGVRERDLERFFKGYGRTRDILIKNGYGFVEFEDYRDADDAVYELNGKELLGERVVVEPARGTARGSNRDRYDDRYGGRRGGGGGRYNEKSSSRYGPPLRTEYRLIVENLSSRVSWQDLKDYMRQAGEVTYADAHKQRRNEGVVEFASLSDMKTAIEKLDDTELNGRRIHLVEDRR

B1: mature pentavalent BBS(5) aptamer (ssRNA)
RNA: GCGGCCGCCUCCGCGGCCGCCUGAUGAGUCCGUGAGGACGAAACAUGCAUGUCGAGAGUACGAUCAACCAGGCGACAGUACUCUCGACGAUCAACCAGGCGACAGUGGCUGGUCAACCAGGCGACCGCCACUGCAGGGUAACGGUCAACCAGGCGACCGUUACCCGGACGGUCAACCAGGCGACCGUUGACUUCGGUCAGUCGAGAUGCAUGUC
Q: For B1, which binding signal (B52 (SRp55) full length [1]) is on record?
A: 10 fold more avid than BBS #14

Q: Does GGGUACGAUCAACCAGGCGACAGUACCC (ssRNA) [BBS-II] bind (B52 (SRp55) full length [2])?
A: binds

Q: Does GGCGGUCGCCUGGUUGACCAGCC (ssRNA) [AntiBBS-I] bind (B52 (SRp55) full length [3]; hairpin)?
A: no binding

B2: BBS #14 ScaI-trimmed (ssRNA)
RNA: GGGAGAAUUCAACUGCCAUCUAGGCAGGGUAACGAUCAACCUGGCGACAGCUGCCCUGCCGUCCAAGU
Q: For B2, which Kd (B52 (SRp55) full length [4]) is on record?
A: ~50 nM

Q: Does GGACUGUCGCCUGGUUGAUCGU (ssRNA) [AntiBBS-II] bind (B52 (SRp55) full length [3])?
A: no binding

Q: For GGCUGGUCAACCAGGCGACCGCCACCCGCGCGC (ssRNA) [BBS-I/Long], which binding signal (B52 (SRp55) full length [5]) is on record?
A: 1 fold of BBS #8

B3: BBS #8 ScaI-trimmed (ssRNA)
RNA: GGGAGAAUUCAACUGCCAUCUAGGCUGGUCAACCAGGCGACCGCCACCCGCGCGCGCAAUACCUAGU
Q: B3 was tested. Which Kd (B52 (SRp55) full length [4]) did it give?
A: ~20 nM

Q: Does GGCGGUCAACCAGGCGACCGCC (ssRNA) [BBS-I/NoBulge] bind (B52 (SRp55) full length [6])?
A: binds

Q: How did the binding signal (B52 (SRp55) full length [7]) turn out when GGCUGGUCAACCAGGCGACCGCC (ssRNA) [BBS-I] was run?
A: 1 fold of BBS #8

Q: Does GGUCGCCUGGUUGAUCUUCGGAUCAACCAGGCGACA (ssRNA) [UUCG/BBS] bind (B52 (SRp55) full length [8])?
A: no binding

B4: BBS #23 (ssRNA)
RNA: GGGAGAAUUCAACUGCCAUCUAGGCCCAACUGCUAAGAAGCAUCCUGUACGAUCAACCCGGCGACAGUACUACAAGCUUCUGGACUCGGU
Q: Does B4 bind (B52 (SRp55) full length [9])?
A: binds

Q: Does GGACGGUCAACCAGGCGACCGU (ssRNA) [bbs-II/3'Stem] bind (B52 (SRp55) full length [10])?
A: binds

B5: BBS #8 (ssRNA)
RNA: GGGAGAAUUCAACUGCCAUCUAGGCUGGUCAACCAGGCGACCGCCACCCGCGCGCGCAAUACCUAGUACUACAAGCUUCUGGACUCGGU
Q: Does B5 bind (B52 RRM1+RRM2 (R12))?
A: binds

Q: Does B5 bind (B52 full length (F))?
A: binds

Q: Does B5 bind (B52 RRM2+SR domain (R2S))?
A: no binding

Q: Does B5 bind (B52 SR domain (S))?
A: no binding

Q: Does B5 bind (B52 RRM1 (R1))?
A: no binding

Q: Does B5 bind (HSF (heat shock factor))?
A: no binding

Q: Does B5 bind (RBP1 (SR protein))?
A: no binding
